Broadly, the stoichiometry N is the number of molecules, sites or subunits per partner or assembly. Broadly, the Kd is the concentration at which binding is half-saturated.

Series [1] concerns the target Cas7d, backbone subunit of type I-D Cascade (Synechocystis). Description: cryo-EM structure; type I-D Cascade (co-expressed subunits with crRNA, purified as a complex) bound to a dsDNA target with GTT PAM, 1:2 Cascade:target, 30 °C 30 min; 2.9 Å.
Series [2] has as its target Cas11d, small subunit of type I-D Cascade (Synechocystis). The series is described as above.
Series [3] deals with Type I-D Cascade WT (assay sample) (Synechocystis) (UniProt Q6ZEI7+Q6ZEI6+Q6ZEI5+Q6ZEI7). Kind of series: EMSA. As to conditions: EMSA: 10 mM HEPES-NaOH pH 7.5, 100 mM KCl, 5% glycerol, 1 mM DTT, 0.01% Triton X-100, 1 µg BSA, 0.1 µg poly(dI.dC) (dsDNA) or 0.26 µg E. coli tRNA (ssRNA) in …. A general note: Mobility shift assays separate free from complexed probe on a gel.

Substance “Cas7d, backbone subunit of type I-D Cascade (natural protein)” gave a stoichiometry N in series [1] of 7.

Regarding “Cas11d, small subunit of type I-D Cascade (natural protein)”, in series [2], the stoichiometry N worked out at 2.

In series [3], “GCAUGACGGAUCGAGGCAUUGAAAGCGACCGCCAGGGGCACAACAAUCAACGUGAUACUA / ACUGAAACGAUUGUUGUGCCCCUGGCGGUCGCUUUCAAUGCCU [PF3167 AAC-PFS ssRNA + crRNA]” registered a Kd of 11 nM. In other words, the double-digit nanomolar range.

As for “GCAUGACGGAUCGAGGCAUUGAAAGCGACCGCCAGGGGCACAACAAUCACGGUGAUACUA / ACUGAAACGAUUGUUGUGCCCCUGGCGGUCGCUUUCAAUGCCU [PF5591 ACG-PFS ssRNA + crRNA]”, the Kd in series [3] came to 11 nM.

Values taken from paper PMC9123187.
